For 94 variants, protein stability index results are on record in the supplement of paper PMC10567573.

The chains are these.
B1: LOXL2 (parent)
chain: HISSCKLGPQVSLDPMKNVTCENG
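Also: lentivirally expressed fusions sorted by FACS into six bins by GFP to DsRed ratio, PSI derived from sequencing read proportions per bin multiplied by bin number.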

The variants in the data set derive from B1. Briefly: protein stability index of a GFP-peptide fusion (GPS, HEK-293T) (PSI 1-6); higher = more stable. The following applies: c terminus: a fixed tail appended.
In the case of HISSCKLGPQVSLDPTKNVTCENG, the protein stability index was found to be 4.04.

In the case of HISSCKLGPQVSLDPKKNVTCENG, the protein stability index came out at 4.5.

Take HISSCKLGPQVSLDPEKNVTCENG: the protein stability index was 5.1. HISSCKLGPQVSLDPDKNVTCENG: the protein stability index amounted to 4.75. Consider HISSCKLGPQVSLDPAKNVTCENG, for which the protein stability index is 4.15. In the case of HISSCKLGPQVSLDPCKNVTCENG, the protein stability index was found to be 3.94. On to HISSCKLGPQVSLDPVKNVTCENG, for which the protein stability index came out at 4.34. Regarding HISSCKLGPQVSLDPIKNVTCENG, the protein stability index came out at 3.68.

HISSCKLGPQVSLDPFKNVTCENG: the protein stability index is 3.74. To HISSCKLGPQVSLDPGKNVTCENG belongs 4.22; to HISSCKLGPQVSLDPPKNVTCENG, 4.16. For the variant HISSCKLGPQVSLDPQKNVTCENG, the protein stability index came out at 4.43. Consider HISSCKLGPQVSLDPSKNVTCENG, for which the protein stability index was 4.23. Consider HISSCKLGPQVSLDPRKNVTCENG, for which the protein stability index was determined as 4.47. Under HISSCKLGPQVSLDPHKNVTCENG stands 4.11; under HISSCKLGPQVSLDPWKNVTCENG, 2.86; under HISSCKLGPQVSLDPNKNVTCENG, 4.61.

With HISSCKLGPQVSLDPLKNVTCENG, the protein stability index turned out to be 3.78. HISSCKLGPQVSLDPYKNVTCENG: the protein stability index stood at 3.86. HISSCKLGPQVSWDPMKNVTCENG: the protein stability index is 3.58. Regarding HISSCKLGPQVSNDPMKNVTCENG, the protein stability index worked out at 4.42. As for HISSCKLGPQVSRDPMKNVTCENG, the protein stability index is 3.8. As for HISSCKLGPQVSFDPMKNVTCENG, the protein stability index amounted to 3.52. Take HISSCKLGPQVSCDPMKNVTCENG: the protein stability index stood at 3.68.

Turning to HISSCKLGPQVSPDPMKNVTCENG, the protein stability index was 4.22.

For HISSCKLGPQVSKDPMKNVTCENG, the protein stability index amounted to 4.15. To HISSCKLGPQVSIDPMKNVTCENG belongs 4.1; to HISSCKLGPQVSDDPMKNVTCENG, 4.34. To HISSCKLGPQVSMDPMKNVTCENG belongs 4.24; to HISSCKLGPQVSHDPMKNVTCENG, 4.34. For HISSCKLGPQVSTDPMKNVTCENG, the protein stability index was found to be 4.61. With HISSCKLGPQVSSDPMKNVTCENG, the protein stability index came out at 4.45. To HISSCKLGPQVSGDPMKNVTCENG belongs 4.61; to HISSCKLGPQVSYDPMKNVTCENG, 3.5; to HISSCKLGPQVSEDPMKNVTCENG, 4.58.

HISSCKLGPQVSQDPMKNVTCENG: the protein stability index worked out at 4.28. In the case of HISSCKLGPQVSADPMKNVTCENG, the protein stability index was 4.43. Under HISSCKLGPQVSVDPMKNVTCENG stands 4.06; under HISSCKLGPQVVLDPMKNVTCENG, 3.92. For HISSCKLGPQVYLDPMKNVTCENG, the protein stability index is 3.24. Under HISSCKLGPQVHLDPMKNVTCENG stands 4. To HISSCKLGPQVILDPMKNVTCENG belongs 3.68; to HISSCKLGPQVCLDPMKNVTCENG, 3.43; to HISSCKLGPQVPLDPMKNVTCENG, 4.18. Regarding HISSCKLGPQVRLDPMKNVTCENG, the protein stability index was 3.48.

On to HISSCKLGPQVGLDPMKNVTCENG, for which the protein stability index stood at 3.93. With HISSCKLGPQVKLDPMKNVTCENG, the protein stability index was determined as 3.9. Consider HISSCKLGPQVWLDPMKNVTCENG, for which the protein stability index was found to be 2.47.

As for HISSCKLGPQVDLDPMKNVTCENG, the protein stability index amounted to 3.72.

As for HISSCKLGPQVQLDPMKNVTCENG, the protein stability index is 4.44. Under HISSCKLGPQVALDPMKNVTCENG stands 4.3. HISSCKLGPQVFLDPMKNVTCENG: the protein stability index amounted to 3.27. Regarding HISSCKLGPQVMLDPMKNVTCENG, the protein stability index was determined as 3.57. Turning to HISSCKLGPQVLLDPMKNVTCENG, the protein stability index worked out at 3.31. Take HISSCKLGPQVNLDPMKNVTCENG: the protein stability index turned out to be 3.9. Under HISSCKLGPQVELDPMKNVTCENG stands 4.48; under HISSCKLGPQVTLDPMKNVTCENG, 4.34; under HISSCKLGQQVSLDPMKNVTCENG, 3.87.

Consider HISSCKLGTQVSLDPMKNVTCENG, for which the protein stability index amounted to 3.95.

Take HISSCKLGSQVSLDPMKNVTCENG: the protein stability index was 3.05. Under HISSCKLGYQVSLDPMKNVTCENG stands 2.83. Take HISSCKLGWQVSLDPMKNVTCENG: the protein stability index turned out to be 2.2. As to HISSCKLGVQVSLDPMKNVTCENG, the protein stability index was 3.23. In the case of HISSCKLGRQVSLDPMKNVTCENG, the protein stability index was 3.76. Under HISSCKLGPQVSLDGMKNVTCENG stands 3.93; under HISSCKLGPQVSLDHMKNVTCENG, 4.02. Under HISSCKLGPQVSLDNMKNVTCENG stands 4.11; under HISSCKLGPQVSLDTMKNVTCENG, 4.14; under HISSCKLGPQVSLDYMKNVTCENG, 2.84. For the variant HISSCKLGPQVSLDFMKNVTCENG, the protein stability index is 3.04. As for HISSCKLGPQVSLDAMKNVTCENG, the protein stability index was determined as 3.86. Turning to HISSCKLGPQVSLDKMKNVTCENG, the protein stability index came out at 3.93.

HISSCKLGPQVSLDEMKNVTCENG: the protein stability index was determined as 4.64. In the case of HISSCKLGPQVSLDIMKNVTCENG, the protein stability index is 3.41. Regarding HISSCKLGPQVSLDWMKNVTCENG, the protein stability index amounted to 3.08.

Turning to HISSCKLGPQVSLDLMKNVTCENG, the protein stability index was determined as 3.62. With HISSCKLGPQVSLDRMKNVTCENG, the protein stability index is 3.82. Take HISSCKLGPQVSLDVMKNVTCENG: the protein stability index is 3.88. Consider HISSCKLGPQVSLDMMKNVTCENG, for which the protein stability index came out at 3.74.

In the case of HISSCKLGPQVSLDDMKNVTCENG, the protein stability index turned out to be 4.19. For HISSCKLGPQVSLDQMKNVTCENG, the protein stability index worked out at 4.03. With HISSCKLGPQVSLDSMKNVTCENG, the protein stability index was 3.94. HISSCKLGPQVSLDCMKNVTCENG: the protein stability index was found to be 3.43.

For the variant HISSCKLGPQVSLDPMHNVTCENG, the protein stability index is 4.03. Under HISSCKLGPQVSLDPMVNVTCENG stands 3.67. Under HISSCKLGPQVSLDPMGNVTCENG stands 3.45. Consider HISSCKLGPQVSLDPMWNVTCENG, for which the protein stability index was determined as 3.05. Under HISSCKLGPQVSLDPMSNVTCENG stands 4.02; under HISSCKLGPQVSLDPMTNVTCENG, 4.19; under HISSCKLGPQVSLDPMYNVTCENG, 3.44. To HISSCKLGPQVSLDPMINVTCENG belongs 3.3; to HISSCKLGPQVSLDPMMNVTCENG, 3.22; to HISSCKLGPQVSLDPMENVTCENG, 4.28. Under HISSCKLGPQVSLDPMRNVTCENG stands 3.55.
